Publication PMC3900722

Biological target: hemocyanin from Fissurella latimarginata (Fissurella latimarginata)
Assay: negative-stain transmission electron microscopy; purified FLH 100 µg/ml on parlodion-coated copper grid, stained with 1-2% aqueous uranyl acetate, 80 kV; quaternary structure of the assembled protein

hemocyanin from Fissurella latimarginata (natural protein)
stoichiometry N: 20 subunits
